How the values were obtained:
[1] = target: T1, MqsA-CHis (Pseudomonas putida KT2440) (UniProt Q88F94); experiment: EMSA; conditions: 10 mM HEPES pH 7.3, 20 mM KCl, 1 mM MgCl2, 5% glycerol, NP-40, poly dI-dC, 0.05 pmol biotin probe in 20 ul, 25 C, 1 h
T1 sequence: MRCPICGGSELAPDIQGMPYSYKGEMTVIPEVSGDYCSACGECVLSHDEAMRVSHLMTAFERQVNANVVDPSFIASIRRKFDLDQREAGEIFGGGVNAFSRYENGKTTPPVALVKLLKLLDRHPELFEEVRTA

[2] = target: MqsA-CHis;MqsR (Pseudomonas putida KT2440;Pseudomonas putida KT2440) (UniProt Q88F94+Q88F93); experiment: EMSA; conditions: 10 mM HEPES pH 7.3, 20 mM KCl, 1 mM MgCl2, 5% glycerol, NP-40, poly dI-dC, 0.05 pmol biotin probe in 20 ul, 25 C, 1 h

## CTATTAGCCAAATTTAACCTGGAAGGTTAATTTCTCATGGAAAAGAGAATGCCTCATTGCCCGCTGGAGCGGGTAAAAGCCCTGGCTGCGGCAAGGCGAATCCGCCCTACGGGTGCTGCATTGAAAGGCG (double strand) [PmqsRA]
[1]
  binding: binds
[2]
  binding: no binding
